Several values for one entry are separate records, joined by “and”; a condition that tells them apart may be missing. Identical values can stand only once. Like-named read-outs stand apart in the source and are kept apart here.
Key:
Assay in all cases: SPR
[1] = target: T1, LRP1 cluster II (CR.3–10), recombinant, secreted from Sf9 cells (human, UniProt Q07954 852-1182)
T1 sequence: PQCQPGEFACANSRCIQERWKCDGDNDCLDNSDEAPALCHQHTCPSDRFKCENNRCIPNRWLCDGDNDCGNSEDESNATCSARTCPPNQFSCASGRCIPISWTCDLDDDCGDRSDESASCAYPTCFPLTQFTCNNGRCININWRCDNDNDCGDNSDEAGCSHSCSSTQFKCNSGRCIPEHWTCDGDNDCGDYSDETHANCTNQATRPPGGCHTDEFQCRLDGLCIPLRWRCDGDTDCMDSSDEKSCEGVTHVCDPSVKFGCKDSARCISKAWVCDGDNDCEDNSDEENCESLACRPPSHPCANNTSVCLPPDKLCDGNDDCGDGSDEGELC

[2] = target: T1, LRP1 cluster II (CR.3–10), recombinant, …; remark: listed apart in the source
[3] = target: T1, LRP1 cluster II (CR.3–10), recombinant, …; remark: listed apart in the source
[4] = target: LRP1 cluster IV (CR.21–31), recombinant, secreted from Sf9 cells (human, UniProt Q07954 3332-3778)
LRP1 cluster IV (CR.21–31), recombinant, secreted from Sf9 cells, sequence (Q07954 3332-3778): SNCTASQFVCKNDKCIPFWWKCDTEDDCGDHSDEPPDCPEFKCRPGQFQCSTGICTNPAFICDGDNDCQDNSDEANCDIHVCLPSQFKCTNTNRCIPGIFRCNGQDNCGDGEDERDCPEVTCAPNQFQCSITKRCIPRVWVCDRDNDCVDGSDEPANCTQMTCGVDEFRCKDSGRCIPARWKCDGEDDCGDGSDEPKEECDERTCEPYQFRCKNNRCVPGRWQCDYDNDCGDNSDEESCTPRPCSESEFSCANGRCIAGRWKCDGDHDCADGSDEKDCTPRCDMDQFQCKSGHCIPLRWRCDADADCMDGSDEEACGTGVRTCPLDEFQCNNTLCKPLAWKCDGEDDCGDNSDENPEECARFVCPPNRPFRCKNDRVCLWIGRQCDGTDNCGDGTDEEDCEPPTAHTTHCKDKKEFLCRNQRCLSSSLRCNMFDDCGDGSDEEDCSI

B1: RAP (commercial; R&D, 4296-LR) (natural protein, human)
chain: YSREKNQPKPSPKRESGEEFRMEKLNQLWEKAQRLHLPPVRLAELHADLKIQERDELAWKKLKLDGLDEDGEKEARLIRNLNVILAKYGLDGKKDARQVTSNSLSGTQEDGLDDPRLEKLWHKAKTSGKFSGEELDKLWREFLHHKEKVHEYNVLLETLSRTEEIHENVISPSDLSDIKGSVLHSRHTELKEKLRSINQGLDRLRRVSHQGYSTEAEFEEPRVIDLWDLAQSANLTDKELEAFREELKHFEAKIEKHNHYQKQLEIAHEKLRHAESVGDGERVSRSREKHALLEGRTKELGYTVKKHLQDLSGRISRARHNEL
Kd [1]: 2.66 nM
Kd [2]: 1.67 nM and 1.2 nM
Kd [3]: 1.97 nM and 2.4 nM
Kd [4]: 1.4 nM

Reference: article PMC8239462 (The Journal of Biological Chemistry, 2021)
